FireProtDB (doi:10.1021/bi002609i)

Conditions: Dictyostelium discoideum, reversible: yes
[1] = pH 5.59, 20 °C, Thermal, DSC, MES/NaMES 50 mM
[2] = pH 5.7, 20 °C, Urea, CD, KH2PO4/K2HPO4 50 mM
[3] = pH 5.7, 20 °C, Urea, CD, MES 50 mM
[4] = pH 5.7, 20 °C, Urea, Fluorescence, MES 50 mM
[5] = pH 5.75, 20 °C, Thermal, DSC, MES/NaMES 50 mM
[6] = pH 5.81, 20 °C, Thermal, DSC, MES/NaMES 50 mM
[7] = pH 6.03, 20 °C, Thermal, DSC, MES/NaMES 50 mM
[8] = pH 6.09, 20 °C, Thermal, DSC, MES/NaMES 50 mM
[9] = pH 6.2, 20 °C, Urea, Fluorescence, MES 50 mM, NaCl 400 mM
[10] = pH 6.2, 20 °C, Urea, Fluorescence, MES 50 mM
[11] = pH 6.25, 20 °C, Thermal, DSC, MES/NaMES 50 mM
[12] = pH 6.7, 20 °C, Urea, CD, KH2PO4/K2HPO4 50 mM
[13] = pH 6.7, 20 °C, Urea, Fluorescence, KH2PO4/K2HPO4 50 mM
[14] = pH 7.08, 5 °C, Urea, Fluorescence, KH2PO4/K2HPO4 50 mM
[15] = pH 7.7, 20 °C, Urea, CD, KH2PO4/K2HPO4 50 mM
[16] = pH 7.7, 20 °C, Urea, Fluorescence, KH2PO4/K2HPO4 50 mM
[17] = pH 8.15, 20 °C, Urea, Fluorescence, KH2PO4/K2HPO4 50 mM
[18] = pH 8.7, 20 °C, Urea, CD, Glycine/sodium glycine 50 mM
[19] = pH 8.7, 20 °C, Urea, Fluorescence, Glycine/sodium glycine 50 mM
[20] = pH 9.7, 20 °C, Urea, CD, Glycine/sodium glycine 50 mM
[21] = pH 9.7, 20 °C, Urea, Fluorescence, Glycine/sodium glycine 50 mM

Chain of Hisactophilin-1 wild type (P13231 whole entry, looked up): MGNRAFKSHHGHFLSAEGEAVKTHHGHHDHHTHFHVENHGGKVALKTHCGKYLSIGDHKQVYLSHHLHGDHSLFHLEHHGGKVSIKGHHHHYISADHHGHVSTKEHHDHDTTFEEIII

Hisactophilin-1 wild type (from UniProt P13231)
heat capacity change of unfolding [1]: 2.4 kcal/mol/K | unfolding free energy [1]: 1.5 kcal/mol | Tm (pH 5.59, Thermal, DSC, MES/NaMES 50 mM): 47 °C | denaturant m value [2]: 2.24 kcal/mol/M | denaturant midpoint (higher = more stable) [2]: 1.02 M | unfolding free energy [2]: 2.28 kcal/mol | denaturant m value [3]: 2.19 kcal/mol/M | denaturant midpoint (higher = more stable) [3]: 1.05 M | unfolding free energy [3]: 2.2 kcal/mol | denaturant m value [4]: 2.2 kcal/mol/M | denaturant midpoint (higher = more stable) [4]: 0.99 M | unfolding free energy [4]: 2.18 kcal/mol | heat capacity change of unfolding [5]: 2.4 kcal/mol/K | unfolding free energy [5]: 1.4 kcal/mol | Tm (pH 5.75, Thermal, DSC, MES/NaMES 50 mM): 48.9 °C | heat capacity change of unfolding [6]: 2.4 kcal/mol/K | unfolding free energy [6]: 2.1 kcal/mol | Tm (pH 5.81, Thermal, DSC, MES/NaMES 50 mM): 53.6 °C | heat capacity change of unfolding [7]: 2.4 kcal/mol/K | unfolding free energy [7]: 2.8 kcal/mol | Tm (pH 6.03, Thermal, DSC, MES/NaMES 50 mM): 58.3 °C | heat capacity change of unfolding [8]: 2.4 kcal/mol/K | unfolding free energy [8]: 4.1 kcal/mol | Tm (pH 6.09, Thermal, DSC, MES/NaMES 50 mM): 58.7 °C | denaturant m value [9]: 2.56 kcal/mol/M | denaturant midpoint (higher = more stable) [9]: 1.39 M | unfolding free energy [9]: 3.56 kcal/mol | denaturant m value [10]: 2.39 kcal/mol/M | denaturant midpoint (higher = more stable) [10]: 2.23 M | unfolding free energy [10]: 5.33 kcal/mol | heat capacity change of unfolding [11]: 2.4 kcal/mol/K | unfolding free energy [11]: 3.8 kcal/mol | Tm (pH 6.25, Thermal, DSC, MES/NaMES 50 mM): 61.7 °C | denaturant m value [12]: 1.63 kcal/mol/M | denaturant midpoint (higher = more stable) [12]: 3.1 M | unfolding free energy [12]: 5.04 kcal/mol | denaturant m value [13]: 1.62 kcal/mol/M | denaturant midpoint (higher = more stable) [13]: 3.08 M | unfolding free energy [13]: 5.1 kcal/mol | denaturant m value [14]: 1.67 kcal/mol/M | denaturant midpoint (higher = more stable) [14]: 2 M | unfolding free energy [14]: 3.34 kcal/mol | denaturant m value [15]: 1.63 kcal/mol/M | denaturant midpoint (higher = more stable) [15]: 4.31 M | unfolding free energy [15]: 7.11 kcal/mol | denaturant m value [16]: 1.59 kcal/mol/M | denaturant midpoint (higher = more stable) [16]: 4.26 M | unfolding free energy [16]: 6.78 kcal/mol | denaturant m value [17]: 1.65 kcal/mol/M | denaturant midpoint (higher = more stable) [17]: 4.61 M | unfolding free energy [17]: 7.59 kcal/mol | denaturant m value [18]: 1.46 kcal/mol/M | denaturant midpoint (higher = more stable) [18]: 5.18 M | unfolding free energy [18]: 7.55 kcal/mol | denaturant m value [19]: 1.49 kcal/mol/M | denaturant midpoint (higher = more stable) [19]: 5.19 M | unfolding free energy [19]: 7.75 kcal/mol | denaturant m value [20]: 1.53 kcal/mol/M | denaturant midpoint (higher = more stable) [20]: 4.58 M | unfolding free energy [20]: 7.03 kcal/mol | denaturant m value [21]: 1.65 kcal/mol/M | denaturant midpoint (higher = more stable) [21]: 4.76 M | unfolding free energy [21]: 7.85 kcal/mol
